For the assay, the target named is T1, LexA alone (UniProt P0A7C2 1-202).
T1 construct: also called only the LexA part of the fusion protein
T1 sequence: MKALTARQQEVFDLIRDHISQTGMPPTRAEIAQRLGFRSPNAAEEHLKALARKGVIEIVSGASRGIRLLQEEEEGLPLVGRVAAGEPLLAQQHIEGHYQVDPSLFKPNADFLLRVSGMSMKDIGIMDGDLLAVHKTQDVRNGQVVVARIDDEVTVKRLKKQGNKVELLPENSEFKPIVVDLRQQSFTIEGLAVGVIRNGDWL
Briefly: yeast two-hybrid GFP reporter, flow cytometry (control, Fig. 2E).

Data on 1 molecule can be found in patent EP1486506A1 (INSTITUT NATIONAL DE LA SANTE ET DE LA RECHERCHE MEDICALE …, dated 2004).

B1: VP16-HIPK2/PEST (other)
chain: HVMRQQPTSTTSSRKSKQHQSSVRNVSTCEVTSSQAISSPQRSKRVKENTPPRCAMVHSSPACSTSVTCGWGDVASSTTRERQRQTIVIPDTPSPTVSVITISSDTDEEEEQKHAPTSTVSKQRKNVISCVTVHDSP
notes: range 789-925
In the case of B1, the binding result is on record as “no binding”.
